# Laboratory results as given in paper PMC10681739, “High-throughput data and modeling reveal insights into the mechanisms of cooperative DNA-binding by transcription factor proteins”.
# T1: ETS1 (Homo sapiens, UniProt P14921)
# T1 sequence: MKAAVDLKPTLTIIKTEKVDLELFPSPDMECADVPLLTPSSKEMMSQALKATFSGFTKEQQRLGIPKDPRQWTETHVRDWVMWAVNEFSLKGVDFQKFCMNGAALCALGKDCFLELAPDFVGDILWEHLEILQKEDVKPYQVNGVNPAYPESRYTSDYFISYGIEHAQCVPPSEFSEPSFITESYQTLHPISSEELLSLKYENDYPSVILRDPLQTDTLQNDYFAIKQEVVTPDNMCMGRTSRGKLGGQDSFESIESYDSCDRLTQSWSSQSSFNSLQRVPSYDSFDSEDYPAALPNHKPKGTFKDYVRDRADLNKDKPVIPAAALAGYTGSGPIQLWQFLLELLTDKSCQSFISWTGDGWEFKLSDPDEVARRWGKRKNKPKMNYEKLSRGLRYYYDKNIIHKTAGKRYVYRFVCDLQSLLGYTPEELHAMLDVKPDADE
# B1: Table S2 C row 71 (dsDNA)
# DNA 1: CTGGGTTGGATGACCTGCGGTGGAACAGATGGCTCC
# DNA 2: GGAGCCATCTGTTCCACCGCAGGTCATCCAACCCAG
# B2: Table S2 C row 24 (dsDNA)
# DNA 1: GACGGGCGCGCGGCTTGCGGGCGGCGGGGCGCTGGG
# DNA 2: CCCAGCGCCCCGCCGCCCGCAAGCCGCGCGCCCGTC
# B3: Table S2 B row 672 (dsDNA)
# DNA 1: GGCTTCCGGCGGGGTACCCTCCTCTGTAGGCGGGGC
# DNA 2: GCCCCGCCTACAGAGGAGGGTACCCCGCCGGAAGCC
# B4: Table S2 B row 2766 (dsDNA)
# DNA 1: TTTGCAAATCCAGAGCGGAGACTTCCGGTGGCCTAG
# DNA 2: CTAGGCCACCGGAAGTCTCCGCTCTGGATTTGCAAA
# B5: Table S2 C row 124 (dsDNA)
# DNA 1: CGCAGCTCCCCACTGTGCGGTTATCTAGGCCAGCAC
# DNA 2: GTGCTGGCCTAGATAACCGCACAGTGGGGAGCTGCG
# B6: Table S2 C row 156 (dsDNA)
# DNA 1: AGGTGTGCTCTCCACCGCGGTTCACAAGGTGTCTGC
# DNA 2: GCAGACACCTTGTGAACCGCGGTGGAGAGCACACCT
# B7: Table S2 C row 149 (dsDNA)
# DNA 1: TTGGCTTCGGTTCTAACCTCAGAGACTTCTCTAAAT
# DNA 2: ATTTAGAGAAGTCTCTGAGGTTAGAACCGAAGCCAA
# B8: Table S2 C row 43 (dsDNA)
# DNA 1: GGCTTTCCAAGCTAGTGTGGTCCACTTGCTCCCTCA
# DNA 2: TGAGGGAGCAAGTGGACCACACTAGCTTGGAAAGCC
# B9: Table S2 C row 56 (dsDNA)
# DNA 1: TGTCTATCGATTAAAACCACTGGTAAGAGCCATTGA
# DNA 2: TCAATGGCTCTTACCAGTGGTTTTAATCGATAGACA
# B10: Table S2 C row 18 (dsDNA)
# DNA 1: ACCCTCGAAGCTCTAACCACTGTGGGCTATTTTTGC
# DNA 2: GCAAAAATAGCCCACAGTGGTTAGAGCTTCGAGGGT
# B11: Table S2 B row 3812 (dsDNA)
# DNA 1: GAGTCGCTTCCGCTCCCGCCCCGCTCTCTGGCGTAG
# DNA 2: CTACGCCAGAGAGCGGGGCGGGAGCGGAAGCGACTC
# B12: Table S2 C row 136 (dsDNA)
# DNA 1: CAAATGAGGTGCCAAGCCACAAAAAGCATTTGCGTC
# DNA 2: GACGCAAATGCTTTTTGTGGCTTGGCACCTCATTTG
# B13: Table S2 C row 158 (dsDNA)
# DNA 1: AGGTATTAAACAGCAACCGCATTGCCAAGCACTGTG
# DNA 2: CACAGTGCTTGGCAATGCGGTTGCTGTTTAATACCT
# B14: Table S2 C row 191 (dsDNA)
# DNA 1: CCAAAAAGAGAGGCAGCCACAAGATCTTCTAAAAGG
# DNA 2: CCTTTTAGAAGATCTTGTGGCTGCCTCTCTTTTTGG
# B15: Table S2 C row 59 (dsDNA)
# DNA 1: CAGACAGTAACAAATGGTGGTTGCCGTCATGTGAAG
# DNA 2: CTTCACATGACGGCAACCACCATTTGTTACTGTCTG
# B16: Table S2 C row 171 (dsDNA)
# DNA 1: GACTGGTGGATCACTTGAGGTCAGTTTGAGACCAGC
# DNA 2: GCTGGTCTCAAACTGACCTCAAGTGATCCACCAGTC
# B17: Table S2 C row 86 (dsDNA)
# DNA 1: CGTCACTTCTGGAGCTGCGGTCGGGATCTGGGAGGA
# DNA 2: TCCTCCCAGATCCCGACCGCAGCTCCAGAAGTGACG
# B18: Table S2 C row 74 (dsDNA)
# DNA 1: GTTAAAACAAAGCAAGCCACAGTGTGTGTCCACAGA
# DNA 2: TCTGTGGACACACACTGTGGCTTGCTTTGTTTTAAC
# B19: Table S2 C row 70 (dsDNA)
# DNA 1: AAAGTCATTTAAGTGACCACACTTTATAGGCTTGCC
# DNA 2: GGCAAGCCTATAAAGTGTGGTCACTTAAATGACTTT
# B20: Table S2 B row 2515 (dsDNA)
# DNA 1: CGGTGGCTTCCGGCCCATGGCGCTGGTTGGTGACTC
# DNA 2: GAGTCACCAACCAGCGCCATGGGCCGGAAGCCACCG
# B21: Table S2 C row 129 (dsDNA)
# DNA 1: GCAGCTGTAGAGGCCTGAGGTTTACCTAATCTGCTA
# DNA 2: TAGCAGATTAGGTAAACCTCAGGCCTCTACAGCTGC
# B22: Table S2 C row 75 (dsDNA)
# DNA 1: AGCTCTGAGAATCATTGTGGCCACACTGTCATGGTC
# DNA 2: GACCATGACAGTGTGGCCACAATGATTCTCAGAGCT
# B23: Table S2 C row 65 (dsDNA)
# DNA 1: GTCAGCTATAGTGACACCACAAGGCCTGAAGAGGGC
# DNA 2: GCCCTCTTCAGGCCTTGTGGTGTCACTATAGCTGAC
# B24: Table S2 C row 57 (dsDNA)
# DNA 1: CACAGAACTGACCAGACCACATGGAGGCCAATCAAA
# DNA 2: TTTGATTGGCCTCCATGTGGTCTGGTCAGTTCTGTG
# B25: Table S2 C row 40 (dsDNA)
# DNA 1: CTTCACGGCTAGTTCTGTGGGTGTCCCACTTAGTTT
# DNA 2: AAACTAAGTGGGACACCCACAGAACTAGCCGTGAAG
# B26: Table S2 C row 115 (dsDNA)
# DNA 1: TGGGGCTTCTCGTTGGCCACAAGTTCAATTTGAGCC
# DNA 2: GGCTCAAATTGAACTTGTGGCCAACGAGAAGCCCCA
# B27: Table S2 C row 190 (dsDNA)
# DNA 1: TAAGAGAAAGCGCAAACCGCACAAGACCAGTTCAAA
# DNA 2: TTTGAACTGGTCTTGTGCGGTTTGCGCTTTCTCTTA
# B28: Table S2 C row 21 (dsDNA)
# DNA 1: TTGCAGAGTTAGCTAGCCACAGGCAAGTCTCCATTG
# DNA 2: CAATGGAGACTTGCCTGTGGCTAGCTAACTCTGCAA
# B29: Table S2 C row 87 (dsDNA)
# DNA 1: GAATGTCTTTAAAAAACCACAGAATTGGGCTGGGCG
# DNA 2: CGCCCAGCCCAATTCTGTGGTTTTTTAAAGACATTC
# B30: Table S2 C row 6 (dsDNA)
# DNA 1: TAAGCCCCGCGTGCCTGTGGGTATTTGAAAGCTGAA
# DNA 2: TTCAGCTTTCAAATACCCACAGGCACGCGGGGCTTA
# B31: Table S2 C row 110 (dsDNA)
# DNA 1: GGATTCAACATTCCTTGTGGGCTGCTGGCCCCAGAC
# DNA 2: GTCTGGGGCCAGCAGCCCACAAGGAATGTTGAATCC
# B32: Table S2 C row 178 (dsDNA)
# DNA 1: GGCTGACTCTGTATCTGTGGGTGCTTCAGGGCCAAC
# DNA 2: GTTGGCCCTGAAGCACCCACAGATACAGAGTCAGCC
# B33: Table S2 C row 14 (dsDNA)
# DNA 1: CTTGCCTAAGACATGCCCACAGCTGCACAGATAAGA
# DNA 2: TCTTATCTGTGCAGCTGTGGGCATGTCTTAGGCAAG
# B34: Table S2 C row 102 (dsDNA)
# DNA 1: GGTCAGGAGGGATGAACCACCGCTTACTCGTTCTTC
# DNA 2: GAAGAACGAGTAAGCGGTGGTTCATCCCTCCTGACC
# B35: Table S2 C row 37 (dsDNA)
# DNA 1: CTGGTGCAGAAAAAAACCACACAAGCCATTGGGTAG
# DNA 2: CTACCCAATGGCTTGTGTGGTTTTTTTCTGCACCAG
# B36: Table S2 C row 114 (dsDNA)
# DNA 1: CTCTTCCATGCAGGCTGTGGTTGCCTTCAAATACCG
# DNA 2: CGGTATTTGAAGGCAACCACAGCCTGCATGGAAGAG
# B37: Table S2 C row 79 (dsDNA)
# DNA 1: CCCATCAGCAGAAAAACCACAGCAAGCTTAATGTGC
# DNA 2: GCACATTAAGCTTGCTGTGGTTTTTCTGCTGATGGG
# B38: Table S2 C row 5 (dsDNA)
# DNA 1: TAGTGTGAATCCCCGCCCACAGAGGGGCGGCACGTT
# DNA 2: AACGTGCCGCCCCTCTGTGGGCGGGGATTCACACTA
# B39: Table S2 C row 83 (dsDNA)
# DNA 1: AGAACTTAAGATCTCTGTGGCTTGTGTGTGTGTGTA
# DNA 2: TACACACACACACAAGCCACAGAGATCTTAAGTTCT
# B40: Table S2 C row 88 (dsDNA)
# DNA 1: TGAGGCTCAGTGCTGACCACATTCAAATGACTAGAC
# DNA 2: GTCTAGTCATTTGAATGTGGTCAGCACTGAGCCTCA
# B41: Table S2 C row 55 (dsDNA)
# DNA 1: CTGACATTTAAGCTCACCACATGTGGGATAGTTAGT
# DNA 2: ACTAACTATCCCACATGTGGTGAGCTTAAATGTCAG
# B42: Table S2 C row 20 (dsDNA)
# DNA 1: TCTCCTCTGAGGGCCTGTGGGCAATGAGCAGAAAAG
# DNA 2: CTTTTCTGCTCATTGCCCACAGGCCCTCAGAGGAGA
# Biological target: T1, ETS1
# Assay: gcPBM; 1 nM ETS1
# Conditions: tags: N-terminal GST (pDEST15), kept (PMC6008103); label: surface-attached array probe
row,Binder,binding signal
1,B1,"374 PBM fluorescence, median of replicate spots"
2,B2,"371 PBM fluorescence, median of replicate spots"
3,B3,"13700 PBM fluorescence, median of replicate spots"
4,B4,"14400 PBM fluorescence, median of replicate spots"
5,B5,"376 PBM fluorescence, median of replicate spots"
6,B6,"376 PBM fluorescence, median of replicate spots"
7,B7,"389 PBM fluorescence, median of replicate spots"
8,B8,"378 PBM fluorescence, median of replicate spots"
9,B9,"359 PBM fluorescence, median of replicate spots"
10,B10,"356 PBM fluorescence, median of replicate spots"
11,B11,"15300 PBM fluorescence, median of replicate spots"
12,B12,"388 PBM fluorescence, median of replicate spots"
13,B13,"391 PBM fluorescence, median of replicate spots"
14,B14,"380 PBM fluorescence, median of replicate spots"
15,B15,"367 PBM fluorescence, median of replicate spots"
16,B16,"359 PBM fluorescence, median of replicate spots"
17,B17,"360 PBM fluorescence, median of replicate spots"
18,B18,"382 PBM fluorescence, median of replicate spots"
19,B19,"361 PBM fluorescence, median of replicate spots"
20,B20,"14700 PBM fluorescence, median of replicate spots"
21,B21,"377 PBM fluorescence, median of replicate spots"

row,Binder,binding signal
1,B22,"376 PBM fluorescence, median of replicate spots"
2,B23,"370 PBM fluorescence, median of replicate spots"
3,B24,"379 PBM fluorescence, median of replicate spots"
4,B25,"366 PBM fluorescence, median of replicate spots"
5,B26,"381 PBM fluorescence, median of replicate spots"
6,B27,"359 PBM fluorescence, median of replicate spots"
7,B28,"364 PBM fluorescence, median of replicate spots"
8,B29,"379 PBM fluorescence, median of replicate spots"
9,B30,"385 PBM fluorescence, median of replicate spots"
10,B31,"359 PBM fluorescence, median of replicate spots"
11,B32,"371 PBM fluorescence, median of replicate spots"
12,B33,"383 PBM fluorescence, median of replicate spots"
13,B34,"362 PBM fluorescence, median of replicate spots"
14,B35,"369 PBM fluorescence, median of replicate spots"
15,B36,"357 PBM fluorescence, median of replicate spots"
16,B37,"369 PBM fluorescence, median of replicate spots"
17,B38,"372 PBM fluorescence, median of replicate spots"
18,B39,"361 PBM fluorescence, median of replicate spots"
19,B40,"389 PBM fluorescence, median of replicate spots"
20,B41,"379 PBM fluorescence, median of replicate spots"
21,B42,"389 PBM fluorescence, median of replicate spots"
